Reference: doi:10.1101/2023.09.22.558821

Molecular target: murine CIZ1 C-terminal fragment C181 (terminal 181 amino-acids) (mouse)
Test: SEC-MALS

stoichiometry N: 2
Substance: murine CIZ1 C-terminal fragment C181 (terminal 181 amino-acids) (domain or fragment)
